Source: the supplement of paper PMC6757056
± gives the standard deviation of the averaged measurements.

B1: library; a variant is named by its letters at N, in order (parent)
chain: GCUGUCACCGGUGUAUUACCCUAGUGGUCGACCGGUCUGAUGAGUCUNNNNNNAGACGAAACAGC

Assays:
hypoxanthine [1] = variants of: B1; assay: FACS-Seq fitted mean relative fluorescence mCherry/BFP without ligand (log10 relative fluorescence); ligand: hypoxanthine (xanthine aptamer); higher = higher reporter protein expression; details: HEK293T, ligand present: no
In short: (§1)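 With or without ligand for 48 h, enriched HEK293T libraries carrying a lentiviral ribozyme-switch mCherry reporter and EF1α-BFP were sorted into 6 mCherry/BFP bins. Bin genomic DNA was amplified by PCR, barcoded and sequenced on MiSeq. Fluorescence was taken from normal fits to the resulting bin counts. Each fitted mean of log10(mCherry/BFP) was scaled to five spiked-in control ribozymes.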

hypoxanthine [2] = variants of: B1; assay: normalized RNA/DNA level with ligand (relative to sTRSVctl = 100) (log10 (% of sTRSVctl)); ligand: hypoxanthine (xanthine aptamer); higher = less ribozyme self-cleavage, higher mRNA level; details: ligand concentration (+) RNA-Seq: 5 mM, HEK293T, reporter: mCherry (pCS4076), ligand present: yes
In short: (§2)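 RNA level was computed as RNA reads over DNA reads divided by a spiked-in non-cleaving sequence or by the top sequences, then scaled and log-transformed. Scaling was ×100 with log10, the top group was 25 sequences, and the threshold was ≥100 DNA reads. The reads came from HEK293T cells transfected at 4 µg per 6-well well with ribozyme switch library plasmids (mCherry, or eGFP in some ligand experiments). Total RNA was extracted with EDTA 72 h after transfection, with any ligand added 1 h before it.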

hypoxanthine [3] = variants of: B1; assay: normalized RNA/DNA level without ligand (relative to sTRSVctl = 100) (log10 (% of sTRSVctl)); ligand: hypoxanthine (xanthine aptamer); higher = less ribozyme self-cleavage, higher mRNA level; details: HEK293T, reporter: mCherry (pCS4076), ligand present: no
In short: as §2

hypoxanthine [4] = variants of: B1; assay: FACS-Seq fitted mean relative fluorescence mCherry/BFP with ligand (log10 relative fluorescence); ligand: hypoxanthine (xanthine aptamer); ligand concentration (+) FACS-Seq: 5 mM; higher = higher reporter protein expression; details: HEK293T, ligand present: yes
In short: as §1

Variant | FACS-Seq fitted mean (log10) (hypoxanthine [1]) | normalized RNA/DNA level with ligand (log10) (hypoxanthine [2]) | normalized RNA/DNA level without ligand (log10) (hypoxanthine [3]) | FACS-Seq fitted mean (log10) (hypoxanthine [4])
ACGCGC | 0.307 ± 0.06 | 1.88 ± 0.052 | 1.54 ± 0.019 | 0.7 ± 0.02
ACGCGG | -0.216 ± 0.014 | 1.6394 ± 0.00079 | 1.22 ± 0.012 | 0.465 ± 0.047
CCGACG | 0.527 ± 0.0072 | 1.9241 ± 0.0017 | 1.685 ± 0.0014 | 0.6331 ± 0.0049
CCGACC | 0.287 ± 0.081 | 2.08 ± 0.082 | 1.85 ± 0.063 | 0.555 ± 0.015
CCGACU | 0.195 ± 0.058 | 1.989 ± 0.013 | 1.82 ± 0.038 | 0.381 ± 0.0067
UCCGGA | 0.226 ± 0.02 | 1.96 ± 0.031 | 1.75 ± 0.021 | 0.384 ± 0.0052
UCCGGG | -0.0285 ± 0.023 | 1.98 ± 0.047 | 1.93 ± 0.031 | 0.2736 ± 0.00093
GCCGCA | 0.533 ± 0.054 | 1.96 ± 0.067 | 1.845 ± 0.0021 | 0.587 ± 0.027
GCCGCG | 0.226 ± 0.012 | 1.94 ± 0.045 | 1.521 ± 0.0049 | 0.576 ± 0.024
ACCAGU | -0.346 ± 0.35 | 1.907 ± 0.0063 | 1.8 ± 0.064 | -0.721 ± 0.15
ACGACA | 0.53 ± 0.013 | 1.912 ± 0.013 | 1.638 ± 0.016 | 0.613 ± 0.031
ACGACU | 0.28 ± 0.024 | 1.84 ± 0.039 | 1.59 ± 0.0056 | 0.447 ± 0.037
ACGACG | 0.162 ± 0.0022 | 1.82 ± 0.045 | 1.26 ± 0.019 | 0.706 ± 0.059
UCCAUG | -0.135 ± 0.032 | 1.88 ± 0.074 | 1.49 ± 0.025 | -0.271 ± 0.076
GCAUUG | 0.25 ± 0.015 | 1.88 ± 0.0068 | 1.4 ± 0.022 | 0.602 ± 0.062
CCCUGA | 0.263 ± 0.023 | 1.92 ± 0.031 | 1.88 ± 0.039 | 0.308 ± 0.011
UCCAAG | 0.264 ± 0.033 | 1.897 ± 0.015 | 1.54 ± 0.036 | 0.457 ± 0.044
UCCAAA | 0.00132 ± 0.058 | 1.937 ± 0.0063 | 1.804 ± 0.0049 | 0.0172 ± 0.041

Variant | FACS-Seq fitted mean (log10) (hypoxanthine [1]) | normalized RNA/DNA level with ligand (log10) (hypoxanthine [2]) | normalized RNA/DNA level without ligand (log10) (hypoxanthine [3]) | FACS-Seq fitted mean (log10) (hypoxanthine [4])
CCAUUC | -0.142 ± 0.078 | 2.022 ± 0.0033 | 1.9 ± 0.07 | 0.309 ± 0.014
GCCUCG | 0.33703 ± 0.00012 | 1.91 ± 0.039 | 1.6 ± 0.029 | 0.649 ± 0.049
GCCCAG | 0.0481 ± 0.032 | 1.81 ± 0.052 | 1.4 ± 0.027 | 0.24 ± 0.019
CCCGGA | 0.102 ± 0.0056 | 1.97 ± 0.042 | 1.88 ± 0.036 | 0.0786 ± 0.0026
CCCGGG | 0.92 ± 0.051 | 1.94 ± 0.12 | 1.6826 ± 0.0015 | 0.833 ± 0.061
UCAUGA | 0.457 ± 0.055 | 1.885 ± 0.014 | 1.5 ± 0.032 | 0.53 ± 0.061
GCCUUA | -0.138 ± 0.047 | 1.97 ± 0.0091 | 1.92 ± 0.026 | -0.197 ± 0.092
GCCUUG | 0.213 ± 0.0088 | 1.93 ± 0.05 | 1.46 ± 0.016 | 0.64 ± 0.021
GCCUUC | -0.325 ± 0.056 | 1.968 ± 0.0039 | 1.88 ± 0.058 | 0.101 ± 0.059
ACCGAU | 0.387 ± 0.047 | 1.89 ± 0.056 | 1.669 ± 0.0087 | 0.531 ± 0.015
CCCGCA | -0.714 ± 0.04 | 1.94 ± 0.028 | 1.91 ± 0.022 | -0.0625 ± 0.038
UCCCCA | 0.858 ± 0.055 | 1.94 ± 0.08 | 1.82 ± 0.036 | 0.843 ± 0.088
GCGCCC | 0.221 ± 0.029 | 1.95 ± 0.071 | 1.742 ± 0.0061 | 0.44444 ± 0.00011
ACCCGG | 0.195 ± 0.055 | 1.89 ± 0.034 | 1.48 ± 0.019 | 0.714 ± 0.058
GCCGAA | 0.359 ± 0.087 | 1.96 ± 0.071 | 1.756 ± 0.0038 | 0.445 ± 0.055
GCCGAU | 0.193 ± 0.041 | 1.96 ± 0.027 | 1.76 ± 0.045 | -0.0573 ± 0.24
GCCGAG | 0.182 ± 0.0042 | 1.856 ± 0.013 | 1.39 ± 0.019 | 0.5906 ± 0.0027
